The results in this text go back to US20230391881A1 (UNIVERSITY OF VIRGINIA PATENT FOUNDATION, published 2023).

Assay [1] addresses T1, Chi-G4S-DR5 (chimeric DR5: human DR5 extracellular domain, G4S linker, mouse DR5 transmembrane and … (chimeric: human DR5 ECD, mouse DR5 TM …)).
T1 construct: Stably expressed on murine 4T1 cells; also called Chimeric human-mouse DR5 G4S
Kind of assay: flow cytometry on Chi-G4S-DR5 stable 4T1 cells (FIG. 15A). (In general: Flow cytometry measures light scatter and fluorescence of single cells or particles in a stream.)

The target of the next assay is T2, FOLR1 (UniProt P15328 25-234).
T2 construct: also called folate receptor alpha
Put plainly: immunoprecipitation, immunoblot with commercial FOLR1 antibody (FIG. 14C).

T2 sequence (P15328 25-234 limits assumed): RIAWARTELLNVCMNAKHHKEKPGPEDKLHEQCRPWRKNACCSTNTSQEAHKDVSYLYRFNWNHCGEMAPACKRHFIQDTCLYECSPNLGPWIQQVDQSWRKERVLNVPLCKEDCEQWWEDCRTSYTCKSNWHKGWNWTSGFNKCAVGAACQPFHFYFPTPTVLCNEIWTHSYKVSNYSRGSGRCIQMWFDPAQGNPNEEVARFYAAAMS

B1: Tigatuzumab (antibody, human IgG1, kappa, L234A L235A, V domains shown)
VH: EVQLVESGGGLVQPGGSLRLSCAASGFTFSSYVMSWVRQAPGKGLEWVATISSGGSYTYYPDSVKGRFTISRDNAKNTLYLQMNSLRAEDTAVYYCARRGDSMITTDYWGQGTLVTVSS
VL: DIQMTQSPSSLSASVGDRVTITCKASQDVGTAVAWYQQKPGKAPKLLIYWASTRHTGVPSRFSGSGSGTDFTLTISSLQPEDFATYYCQQYSSYRTFGQGTKVEIKR
notes: also called clinical tigatuzumab antibody
Turning to B1, in assay [1], the binding result was “binds”.

B2: Farletuzumab (antibody, V domains shown)
VH: EVQLVESGGGVVQPGRSLRLSCSASGFTFSGYGLSWVRQAPGKGLEWVAMISSGGSYTYYADSVKGRFAISRDNAKNTLFLQMDSLRPEDTGVYFCARHGDDPAWFAYWGQGTPVTVSS
VL: DIQLTQSPSSLSASVGDRVTITCSVSSSISSNNLHWYQQKPGKAPKPWIYGTSNLASGVPSRFSGSGSGTDYTFTISSLQPEDIATYYCQQWSSYPYMYTFGQGTKVEIKR
notes: also called clinical anti-FOLR1, farletuzumab
Consider B2, for which the binding result with FOLR1 is recorded as “binds”.
